Assay results reported in US20160228506A1, “Compositions and Formulations for Prevention and Reduction of Tumorigenesis, Cancer Cell Proliferation and Invasion, and Methods of Production and Use Thereof in Cancer Treatment” (PRONUTRIA, INC., priority 2013, published 2016).

B1: SEQID-00620: protein of the 168 nutritive polypeptide library (protein, listed as Saccharomyces cerevisiae)
chain: MSDVEEVVEVQEETVVEQTAEVTIEDALKVVLRTALVHDGLARGLRESTKALTRGEALLVVLVSSVTEANIIKLVEGLANDPENKVPLIKVADAKQLGEWAGLGKIDREGNARKVVGASVVVVKNWGAETDELSMIMEHFSQQ
modifications: source: /note="strain ATCC 204508 / S288c"
notes: protein of the 168 nutritive polypeptide library
B2: SEQID-00623: protein of the 168 nutritive polypeptide library (protein, listed as Solanum lycopersicum)
chain: MKPAEKKPAEKTPVAEKAPAEKKPKAGKKLPKDAAAGDKKKKRSKKAVETYKIYIFKVLKQVHPDIGISSKAMGIMNSFINDIFEKLAQEASRLARYNKKPTITSREIQTAVRLVLPGELAKHAVSEGTKAVTKFTSS
B3: SEQID-00624: protein of the 168 nutritive polypeptide library (protein)
chain: MSEKTDQILEQLKSLSLLEASELVKQIEEAFGVDASASAGGGMMMMAAPGMAAPGAEAAAEEEKTEFDVILTEFPADKKIAVLKVVRSITGLGLKEAKDLVESAPKAIKEATTKEDAESIKKQLEESGAKVEVK
modifications: Arthrospira platensis NIES-39
notes: as for B1
B4: SEQID-00625: protein of the 168 nutritive polypeptide library (protein)
chain: MPFKRYVEIGRVAQINYGKEYGRLVVIVDVIDQNRALVDAPDMVRSQVNFKRLSLTDIKIDIKRVPKKKDLVKAMEDADVKTKWEKSSWGRKLIVRKRRASLNDFDRFKIMLAKIKKAAVVRQELAKLRKSA
modifications: Glycine max
notes: as for B1
B5: SEQID-00626: protein of the 168 nutritive polypeptide library (protein, listed as Lactobacillus acidophilus)
chain: MVMTDPIADYLTRIRNANMAKHDSVEIPASNIKKSISEILKREGFIRDYEVADDNKQGVIKVFLKYGPNGERVISGLKRISKPGLRNYVSAEDLPKVLNGLGIAIVSTSAGVITDKEARQKNVGGEVIAYIW
modifications: source: /note="strain 30SC"
notes: as for B1
B6: SEQID-00628: protein of the 168 nutritive polypeptide library (protein, listed as Saccharomyces cerevisiae)
chain: MSDFQKEKVEEQEQQQQQIIKIRITLTSTKVKQLENVSSNIVKNAEQHNLVKKGPVRLPTKVLKISTRKTPNGEGSKTWETYEMRIHKRYIDLEAPVQIVKRITQITIEPGVDVEVVVASN
modifications: source: /note="strain ATCC 204508 / S288c"
notes: as for B1
B7: SEQID-00632: protein of the 168 nutritive polypeptide library (protein, listed as Saccharomyces cerevisiae)
chain: MSTVTKYFYKGENTDLIVFAASEELVDEYLKNPSIGKLSEVVELFEVFTPQDGRGAEGELGAASKAQVENEFGKGKKIEEVIDLILRNGKPNSTTSSLKTKGGNAGTKAYN
modifications: source: /note="strain ATCC 204508 / S288c"
notes: as for B1
B8: SEQID-00633: protein of the 168 nutritive polypeptide library (protein, listed as Saccharomyces cerevisiae)
chain: MSDAGRKGFGEKASEALKPDSQKSYAEQGKEYITDKADKVAGKVQPEDNKGVFQGVHDSAEKGKDNAEGQGESLADQARDYMGAAKSKLNDAVEYVSGRVHGEEDPTKK
modifications: source: /note="strain ATCC 204508 / S288c"
notes: as for B1
B9: SEQID-00634: protein of the 168 nutritive polypeptide library (protein, listed as Saccharomyces cerevisiae)
chain: MPPKQQLSKAAKAAAALAGGKKSKKKWSKKSMKDRAQHAVILDQEKYDRILKEVPTYRYVSVSVLVDRLKIGGSLARIALRHLEKEGIIKPISKHSKQAIYTRATASE
modifications: source: /note="strain ATCC 204508 / S288c"
notes: as for B1
B10: SEQID-00638: protein of the 168 nutritive polypeptide library (protein)
chain: MKTNELVQRVAEKAKLPKKRVRAILDLAFSAISEEIESGQPVVVRGLGKFTLKEQPARTKTNPETGETTEVPARTVVNFRVIKPSKDKEEADS
modifications: Arthrospira platensis NIES-39
notes: as for B1
B11: SEQID-00641: protein of the 168 nutritive polypeptide library (protein, listed as Saccharomyces cerevisiae)
chain: MLPRSALARSLQLQRGVAARFYSEGSTGTPRGSGSEDSFVKRERATEDFFVRQREKEQLRHLKEQLEKQRKKIDSLENKIDSMTK
modifications: source: /note="strain ATCC 204508 / S288c"
notes: as for B1
B12: SEQID-00642: protein of the 168 nutritive polypeptide library (protein, listed as Saccharomyces cerevisiae)
chain: MADQENSPLHTVGFDARFPQQNQTKHCWQSYVDYHKCVNMKGEDFAPCKVFWKTYNALCPLDWIEKWDDQREKGIFAGDINSD
modifications: source: /note="strain ATCC 204508 / S288c"
notes: as for B1
B13: SEQID-00643: protein of the 168 nutritive polypeptide library (protein, listed as Linum usitatissimum)
chain: MVGCGRIGKLLLQRLKPFGCNLLYHDRLKMEPELETQIGAKFEEDVDAMLPKCDVVVINTPLTEKTKGMFDKDRILKMKKG
B14: SEQID-00645: protein of the 168 nutritive polypeptide library (protein, listed as Saccharomyces cerevisiae)
chain: MAYTSHLSSKTGLHFGRLSLRSLTAYAPNLMLWGGASMLGLFVFTEGWPKFQDTLYKKIPLLGPTLEDHTPPEDKPN
modifications: source: /note="strain ATCC 204508 / S288c"
notes: as for B1
B15: SEQID-00648: protein of the 168 nutritive polypeptide library (protein)
chain: MKRVHLPTDRETGKFRGFAFVEMNTEEEEIHAIEELDGAEWMGREIRVNLARPREDKKPSDRGGRKPRY
modifications: Arthrospira platensis C1
notes: as for B1
B16: SEQID-00236: nutritive polypeptide (protein, listed as Bos taurus)
chain: ALQEAHQQTLDDLQAEEDKVNTLTKAKTKLEQQVDDLEGSLEQEKKLRMDLERAKRKLEGDLKLA
B17: SEQID-00284: nutritive polypeptide (protein, listed as Arabidopsis thaliana)
chain: KLEHGVHVVSGTPGRVCDMIKRRSLRTRAIKLLILDESDEMLSRGFKDQIYDVYRYLPPDLQVCLVSATLPHEILEMTSKFMTEPVKILVKRDELTLEGIKQFFVAVEKEEWK
B18: SEQID-00298 (AN): nutritive polypeptide naturally produced in Cow (protein, listed as Bos taurus)
chain: MGLSDGEWQLVLNAWGKVEADVAGHGQEVLIRLFTGHPETLEKFDKFKHLKTEAEMKASEDLKKHGNTVLTALGGILKKKGHHEAEVKHLAESHANKHKIPVKYLEFISDAIIHVLHAKHPSDFGADAQAAMSKALELFRNDMAAQYKVLGFHG
B19: SEQID-00338 (BS): nutritive polypeptide (protein, listed as Saccharomyces cerevisiae)
chain: MSSSESIRMVLIGPPGAGKGTQAPNLQERFHAAHLATGDMLRSQIAKGTQLGLEAKKIMDQGGLVSDDIMVNMIKDELTNNPACKNGFILDGFPRTIPQAEKLDQMLKEQGTPLEKAIELKVDDELLVARITGRLIHPASGRSYHKIFNPPKEDMKDDVTGEALVQRSDDNADALKKRLAAYHAQTEPIVDFYKKTGIWAGVDASQPPATVWADILNKLGKD
modifications: source: /note="strain ATCC 204508 / S288c"
B20: SEQID-00001: nutritive polypeptide (protein, listed as Gallus gallus)
chain: MGSIGAASMEFCFDVFKELKVHHANENIFYCPIAIMSALAMVYLGAKDSTRTQINKVVRFDKLPGFGDSIEAQCGTSVNVHSSLRDILNQITKPNDVYSFSLASRLYAEERYPILPEYLQCVKELYRGGLEPINFQTAADQARELINSWVESQTNGIIRNVLQPSSVDSQTAMVLVNAIVFKGLWEKAFKDEDTQAMPFRVTEQESKPVQMMYQIGLFRVASMASEKMKILELPFASGTMSMLVLLPDEVSGLEQLESIINFEKLTEWTSSNVMEERKIKVYLPRMKMEEKYNLTSVLMAMGITDVFSSSANLSGISSAESLKISQAVHAAHAEINEAGREVVGSAEAGVDAASVSEEFRADHPFLFCIKHIATNAVLFFGRCVSP
B21: SEQID-00343: nutritive polypeptide (protein)
chain: MATLIAPSHHSRVEDAEALRNAFKGWGADDKAIIAILGHRNVHQRQEIRKAYEEIYQEDLIKRLESEISGDFERAMYRWMLQPADRDAVLVNVAIKNGTKDYHVIAEIACVLSAEELLAVRRAYHRRYKCSLEEDVAANTTGNLRQLLVGLVTSYRYEGDEINVKFSQTEANVLHESVKEKKGNSEEVIRILTTRSKTQLVATFNRYRDEHGISISKKLLDQTSDDFHKVLHTAIRCINDHKKYYEKVLRNAVKKFGTDEDGLSRVIVTRAEKDLKDIKELYYKRNSVHLEDEVSKETSGDYKKFLLTLLGK
modifications: Glycine max

Assay: SGF digest of 168 nutritive polypeptide library, intact protein by LC-MS/MS
Assay type: in vitro ADME
Conditions: 168 nutritive polypeptide library SGF digest, LC-MS/MS spectral counts
In short: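 A 168-protein IMAC-purified recombinant library was digested in simulated gastric fluid and the 0 and 10 min samples were profiled by SDS-PAGE fractionation, in-gel trypsin digestion and nanoLC-MS/MS. Percent intact protein at 10 min is the ratio of spectral counts (t10/t0), summed over the peak fraction and two flanking fractions. Filters were 1% FDR and at least two unique peptides.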

Molecule	% Intact Protein at 10 min [%]
B1	0
B2	63.6
B3	0
B4	0
B5	0
B6	0
B7	1.2
B8	92.1
B9	36.8
B10	0
B11	21.2
B12	75
B13	13.6
B14	0
B15	39.5

Assay: Intact half-life during simulated gastric fluid (SGF) digestion
Conditions: SGF pH 1.5, pepsin:polypeptide 1:20 w/w, 37° C.; intact protein

Molecule	SGF Half-life (t½) [s]
B16	600
B17	60
B18	18
B19	12
B20	300
B21	18
